From US20170260266A1
Where a chain is given by its changes, count along the chain named. Where “and” joins values, the source holds several entries; their conditions need not be identical. Identical values can stand only once. Values belong to the binder of their own block, whether it stands above or below them.

Legend:
[1] = target: full length (mature) cynomolgus monkey TSLP, recombinant (cynomolgus monkey); experiment: cell-based or functional assay
[2] = target: full length (mature) cynomolgus monkey TSLP, recombinant (cynomolgus monkey); experiment: SPR, biotinylated TSLP on SA chip; all concentrations (footnote 2)
[3] = target: full length (mature) cynomolgus monkey TSLP, recombinant (cynomolgus monkey); experiment: ELISA RBA, geometric mean
[4] = target: full length (mature) cynomolgus monkey TSLP, recombinant (cynomolgus monkey); experiment: SPR, biotinylated TSLP on SA chip; value excluding 1000 nM concentration
[5] = target: full length (mature) cynomolgus monkey TSLP, recombinant (cynomolgus monkey); experiment: SPR, biotinylated TSLP on SA chip (Biacore 4000)
[6] = target: full length (mature) cynomolgus monkey TSLP, recombinant (cynomolgus monkey); experiment: RBA, geometric mean (n = 2)
[7] = target: full length (mature) cynomolgus monkey TSLP, recombinant (cynomolgus monkey); experiment: SPR with biotinylated TSLP; mean of two experiments
[8] = target: pre-existing human anti-VK (HAVK) antibodies; experiment: MSD bridging immunoassay: biotinylated and ruthenylated dAb cross-linked by antibodies in 5% serum of healthy subjects; rate over donors

B2: DOM30h-440-64 (protein)
VL: DIQMTQSPSSLSASVGDRVTITCRASRPIRNWLDWYQQKPGKAPKLLIWGASHLQSGVPSRFSGSGSGTDFTLTISSLQPEDFATYYCLQIGEDPVTFGQGTKVEIKR
Kd [5]: 4.29 nM
pSTAT5 assay in SW756 cells, Geometric Mean IC50 [1]: 3.36 nM
IC50 [3]: 0.87 nM

B4: DOM30h-440-53 (protein)
VL: B2 VL with I91V
Kd [5]: 5.79 nM
pSTAT5 assay in SW756 cells, Geometric Mean IC50 [1]: 7.28 nM
IC50 [3]: 1.3 nM

B6: DOM30h-440-60 (protein)
VL: B2 VL with L89I, I91F
Kd [5]: 7.81 nM
pSTAT5 assay in SW756 cells, Geometric Mean IC50 [1]: 11.2 nM
IC50 [3]: 2.65 nM

B7: DOM30h-440-63 (protein)
VL: B2 VL with L89M, E93S
Kd [5]: 5.98 nM
pSTAT5 assay in SW756 cells, Geometric Mean IC50 [1]: 2.4 nM
IC50 [3]: 0.83 nM

B8: DOM30h-440-54 (protein)
VL: B2 VL with L89W, I91L, G92A, E93F, V96T
Kd [5]: 6.24 nM
pSTAT5 assay in SW756 cells, Geometric Mean IC50 [1]: 2.45 nM
IC50 [3]: 0.67 nM

B11: DOM30h-440-81/86 (protein)
VL: DIQMTQSPSSLSASVGDRVTITCRASRPIRNWLDWYQQKPGKAPKLLIWGASHLQSGVPSRFSGSGSGTDFTLTISSLQPEDFATYYCVQIGEDPVTFGQGTKVEIK
IC50 [6]: 2.05 nM
Kd [7]: 0.511 nM and 0.51 nM
koff [7]: 0.000774 s⁻¹
kon [7]: 1.62e+06 M⁻¹ s⁻¹
Inhibition of TSLP-induced pSTAT5 in SW756 cells, Geometric Mean IC50 (n = 5) [1]: 4 nM
frequency of sera giving a positive signal (above the assay cutpoint) [8]: 6.7%

Results, then the binder that gave them:

pSTAT5 assay in SW756 cells, Geometric Mean IC50 [1]: 1.6 nM
Kd [2]: 4.95 nM
IC50 [3]: 0.36 nM
Kd [4]: 1.92 nM
B1: DOM30h-440-57 (protein)
VL: B2 VL with K45E, L89M, E93D

Kd [5]: 3.42 nM
pSTAT5 assay in SW756 cells, Geometric Mean IC50 [1]: 3.43 nM
IC50 [3]: 0.21 nM
B3: DOM30h-440-58 (protein)
VL: B2 VL with G92A, E93D

Kd [5]: 1.61 nM
pSTAT5 assay in SW756 cells, Geometric Mean IC50 [1]: 3.12 nM
IC50 [3]: 0.55 nM
B5: DOM30h-440-55 (protein)
VL: B2 VL with L89V

Kd [5]: 3.11 nM
pSTAT5 assay in SW756 cells, Geometric Mean IC50 [1]: 3.8 nM
IC50 [3]: 0.29 nM
B9: DOM30h-440-65 (protein)
VL: B2 VL with L89M

Kd [5]: 2.97 nM
pSTAT5 assay in SW756 cells, Geometric Mean IC50 [1]: 4.74 nM
IC50 [3]: 0.55 nM
B10: DOM30h-440-56 (protein)
VL: B2 VL with I75V, L89M
